Here are results for two molecules from patent US20240366624A1, “METHODS AND COMPOSITIONS FOR TREATING THROMBOTIC DISEASE” (Washington University, priority 2023, published 2024).

In one test the test system is Ero1α KO mice. The test can be described thus: Intravital microscopy, laser-induced cremaster arteriolar injury, rescue in Ero1α KO mice. The test is classed as in vivo, mouse. To be noted: 4 μg/g BW into Ero1α KO mice. As for the experimental part: FIG. 2 (A-C): DyLight 649-conjugated anti-CD42c and Alexa 488-conjugated rabbit IgG or polyclonal anti-ERO1α antibodies (0.3 μg/g body weight [BW]) were injected into wild type (WT) mice for intravital microscopy. Platelet accumulation and extracellular Ero1α were detected at the site of laser-induced cremaster arteriolar injury. FIG. 2A: Representative images. FIG. 2B and FIG. 2C: The median integrated fluorescence intensities of anti-CD42c (F platelet) and anti-ERO1α antibodies (F Ero1α; n=41-43 arterioles in 6 WT mice per group). FIG. 2(D-F): Intravital microscopy with WT control and Ero1α conditional knockout (CKO) and knockout (KO) mice. After laser-induced cremaster arteriolar injury, platelet accumulation and fibrin generation were detected by injection of DyLight 649-conjugated anti-CD42c and Alexa 488-conjugated anti-fibrin antibodies, respectively. FIG. 2D: Representative images. FIG. 2E and FIG. 2F: The median integrated fluorescence intensities of anti-CD42c (F platelet) and anti-fibrin (F fibrin) antibodies (n=36-44 arterioles in 6 mice per group). Quantification of the antibody signal at a different time point after laser injury. FIG. 2G and FIG. 2H: Ero1α KO mice were treated with recombinant wtERO1α or mutant ERO1α (m ERO1a) (Cys94Ser), 4 μg/g BW. After laser injury, platelets and fibrin were detected as described above (n=36-38 arterioles in 6 mice per group). FIG. 2I: The time to occlusion (TTO) was measured by a Doppler blood flow meter in WT control, Ero1α CKO/KO, and β3 KO mice after the application of 6.5% FeCl3 to a carotid artery (n=8-11 mice per group). FIG. 2J and FIG. 2K: After amputating the tail tip (5 mm), tail bleeding times and hemoglobin (Hb) contents were measured in WT control, Ero1α CKO/KO, and β3 KO mice (n=8-9 mice per group). Bars represent the median value. P values were determined by Mann-Whitney U test (FIG. 2E, FIG. 2F, and FIG. 2(1-K)) or ANOVA and Dunn test (FIG. 2G and FIG. 2H).
Intravital microscopy was performed in a mouse model of laser-induced cremaster arteriolar injury as previously described. WT (C57BL/6), littermate WT control, and CKO and KO male mice (8-10 weeks old) were anesthetized with intraperitoneal injection of ketamine and xylazine. The cremaster muscle was exteriorized and superfused with 37° C. bicarbonate-buffered saline throughout the experiment. Arteriolar wall injury was induced by laser ablation (Photonics Instruments) as previously described. Multiple thrombi were generated in at least 3 to 4 different arterioles of 1 mouse, with new thrombi formed upstream of earlier thrombi to minimize any contribution from thrombi generated earlier in the mouse. […]

In another test the test system is Ero1α-null platelets. The test is described as follows: Platelet aggregation, Ero1α-null platelets. The format is cell-based, mouse. To be noted: 50 μg/mL protein, 0.025 U/mL thrombin. Here is the method:
FIG. 7(A-L) is an exemplary embodiment of crucial intracellular ERO1α (endoplasmic reticulum oxidoreductase 1a) for platelet activation, aggregation, and thrombus formation in accordance with the present disclosure. FIG. 7A: Ex vivo platelet thrombus formation in a flow chamber assay. Adherent and aggregated platelets were stained with rhodamine-conjugated phalloidin and imaged by confocal microscopy. Representative images (bar, 10 μm). Surface coverage and thrombus volume were measured (mean±SD, n=4). FIG. 7(B-E): Aggregation and ATP secretion of wild type (WT) and Ero1α-null platelets were induced by 0.025 U/mL thrombin, 0.05 μg/mL CRP (collagen-related peptide), 0.5 μM A23187, or 2.5 μM ADP. […] Quantification graphs of aggregation and ATP secretion are presented as the mean±SD (n=3-4). FIG. 7G and FIG. 7H: P-selectin exposure and αIIbβ3 integrin activation of WT and Ero1α-null platelets were analyzed by flow cytometry. The data are presented as the geometric mean fluorescence intensity (MFI) value (mean±SD, n=3-4). […] P values determined by unpaired Student t test (FIG. 7(A-E) and FIG. 7(G-1)), ANOVA and Dunnett test (FIG. 7F), or Mann-Whitney U test (FIG. 7K and FIG. 7L). […]
FIG. 10(A-E) is an exemplary embodiment of 15E9 not affecting platelet activation and aggregation in accordance with the present disclosure. […] P values determined by unpaired Student's t-test (vs. mIgG1). […]

Residue numbers refer to the chain shown, from its start.

B1: wtERO1α: recombinant wild-type ERO1α (protein)
chain: EEQPPETAAQRCFCQVSGYLDDCTCDVETIDRFNNYRLFPRLQKLLESDYFRYYKVNLKRPCPFWNDISQCGRRDCAVKPCQSDEVPDGIKSASYKYSEEANNLIEECEQAERLGAVDESLSEETQKAVLQWTKHDDSSDNFCEADDIQSPEAEYVDLLLNPERYTGYKGPDAWKIWNVIYEENCFKPQTIKRPLNPLASGQGTSEENTFYSWLEGLCVEKRAFYRLISGLHASINVHLSARYLLQETWLEKKWGHNITEFQQRFDGILTEGEGPRRLKNLYFLYLIELRALSKVLPFFERPDFQLFTGNKIQDEENKMLLLEILHEIKSFPLHFDENSFFAGDKKEAHKLKEDFRLHFRNISRIMDCVGCFKCRLWGKLQTQGLGTALKILFSEKLIANMPESGPSYEFHLTRQEIVSLFNAFGRISTSVKELENFRNLLQNIH
Consider B1, for which, in the test on Ero1α KO mice, the “rescue of fibrin generation” value is “minimal rescue effect” and the “rescue of platelet thrombus formation” value is listed as “minimal rescue effect”. Also, the “rescue of the defect in Ero1α-null platelet aggregation” value in the test on Ero1α-null platelets is recorded as “did not rescue”.

B2: mERO1α: activity-null ERO1α-Cys94Ser (protein)
chain: B1 chain with C71S
For B2, in the test with Ero1α KO mice, the “rescue of fibrin generation” value is reported as “did not show any effect” and the “rescue of platelet thrombus formation” value is “did not show any effect”.
